Test results published in patent US20110135573A1, “METALLOPROTEINASE 9 AND METALLOPROTEINASE 2 BINDING PROTEINS” (DYAX CORP., priority 2009, published 2011).

Columns and labels:
[1] = biological target: T1, Mouse MMP-9 (Mus musculus, UniProt P41245); assay: Enzyme inhibition assay (single point inhibition, IC50/Ki,app), substrate M-2350; format: biochemical; conditions: light chain shuffled antibodies
T1 construct: purchased R&D Systems 909-MM (909-MM-010)
Procedure: (§1) 343 unique sFabs from the anti-MMP-9/-2 M237-D02 affinity maturation campaign were discovered by phage display, produced in small scale (6 mL cultures in deep 24-well plates) and screened to select inhibitors with sub-nanomolar potency against the human enzymes and at least single-digit nanomolar potency toward the mouse orthologues. […] Isolates which appeared potent against both human and mouse MMP-2 were then subjected to IC50 analysis against hMMP-9. Sub-nanomolar inhibitors of hMMP-9 were further tested by IC50 analysis against mMMP-9 and h/m MMP-2, if sufficient small-scale sFab material was available. Thirteen potential h/m MMP-9/-2 sFab inhibitors were then produced in medium scale (250 mL cultures in flasks) and retested for h/m MMP-9 and h/m MMP-2 inhibition. Five potential lead candidates were reformatted as IgGs and retested in enzyme inhibition assays.
(§2) Human MMP-9 (Biomol #SE-244), mouse MMP-9 (R&D Systems #909-MM-010), human MMP-2 (Biomol #SE-237) and mouse MMP-2 (R&D Systems #924-MP-010) were tested at final concentrations of 1 nM, 0.25-0.4 nM, 2.5 nM and 0.2 nM, respectively. Target enzymes were incubated with inhibitor for two hours at 30° C. in reaction buffer (50 mM Tris-HCl pH 7.5, 150 mM NaCl, 5 mM CaCl2, 0.05% Brij-35) in a total volume of 90 μL using a white 96 well plate (Costar). Reactions contained 5 μL of small-scale sFab stock solution (average concentration of 500 nM) for single point inhibition analysis or a concentration series of sFab/IgG for IC50 Ki,app determinations. Commercially available anti-MMP-9 antibodies (Millipore mAb 13415 and R&D Systems polyclonal IgG #AB911) were tested by IC50 analyses using 100 nM and 500 nM as the highest inhibitor concentrations, respectively. An anti-MMP-2 antibody (R&D Systems polyclonal IgG #AF902) was similarly tested with 200 nM as the highest inhibitor concentration. Reactions were initiated by the addition of 10 μL of a 10× concentrated stock of substrate, Mca-Lys-Pro-Leu-Gly-Leu-Dap(Dnp)-Ala-Arg-NH2, (Bachem M-2350), at final concentration of 10 μM and monitored at 30° C. in a Molecular Devices' Gemini fluorescence plate reader. The excitation and emission wavelengths were set at 328 nm and 393 nm, respectively. Kinetic data were acquired by the increase in fluorescence, and initial rates for each condition were plotted against the total inhibitor concentration. Reactions were performed in duplicates and all data replicates were plotted in a single graph and fit to the following equation^1:
(§3) Where A=initial rate observed at each inhibitor concentration; Ao=initial rate observed in the absence of inhibitor; Ainh=initial rate observed for the enzyme inhibitor complex; Inh=concentration of inhibitor; E=total enzyme concentration (treated as a floated parameter); and Ki,app=apparent equilibrium inhibition constant.

[2] = biological target: T2, human MMP-2 (Homo sapiens, UniProt P08253); assay: as above; format: biochemical; conditions: light chain shuffled antibodies
T2 construct: purchased Biomol SE-237
Procedure: as §1, §2, §3

[3] = biological target: T3, mouse MMP-2 (Mus musculus, UniProt P33434); assay: as above; format: biochemical; conditions: light chain shuffled antibodies
T3 construct: purchased R&D Systems 924-MP-010
Procedure: as §1, §2, §3

[4] = biological target: T4, MMP-9 (Homo sapiens, UniProt P14780); assay: as above; format: biochemical; parameters: Human MMP-9 catalytic domain (BIOMOL, SE-244); purchased BIOMOL SE-244; conditions: light chain shuffled antibodies
Procedure: as §1
as §2, with “Commercially available anti-MMP-9 antibodies (Millipore mAb 13415 and R&D Systems polyclonal IgG #AB911) were tested by IC50 analyses using 100 nM and 500 nM as the highest inhibitor concentrations, respectively. An anti-MMP-2 antibody (R&D Systems polyclonal IgG #AF902) was similarly tested with 200 nM as the highest inhibitor concentration.” left out, “The excitation and emission wavelengths were set at 328 nm and 393 nm, respectively.” left out, “Reactions were performed in duplicates and all data replicates were plotted in a single graph and fit to the following equation^1:” left out
Target sequence in this assay (P14780 107-444 limits assumed): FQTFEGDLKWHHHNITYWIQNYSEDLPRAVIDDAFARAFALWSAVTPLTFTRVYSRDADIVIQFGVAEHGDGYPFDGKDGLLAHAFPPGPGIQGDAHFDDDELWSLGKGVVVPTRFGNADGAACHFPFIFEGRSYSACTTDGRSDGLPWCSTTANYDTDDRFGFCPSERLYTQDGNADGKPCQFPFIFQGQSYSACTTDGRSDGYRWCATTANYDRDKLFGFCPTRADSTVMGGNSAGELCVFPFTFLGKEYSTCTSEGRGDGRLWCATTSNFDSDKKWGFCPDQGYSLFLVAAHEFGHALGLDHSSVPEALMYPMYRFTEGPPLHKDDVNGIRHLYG

[5] = biological target: T4, MMP-9; assay: Binding of non-inhibiting Fabs to MMP-9 (apparent KD, dissociation t1/2, TIMP-1 competition); conditions: Fab
Target sequence in this assay (P14780 94-707): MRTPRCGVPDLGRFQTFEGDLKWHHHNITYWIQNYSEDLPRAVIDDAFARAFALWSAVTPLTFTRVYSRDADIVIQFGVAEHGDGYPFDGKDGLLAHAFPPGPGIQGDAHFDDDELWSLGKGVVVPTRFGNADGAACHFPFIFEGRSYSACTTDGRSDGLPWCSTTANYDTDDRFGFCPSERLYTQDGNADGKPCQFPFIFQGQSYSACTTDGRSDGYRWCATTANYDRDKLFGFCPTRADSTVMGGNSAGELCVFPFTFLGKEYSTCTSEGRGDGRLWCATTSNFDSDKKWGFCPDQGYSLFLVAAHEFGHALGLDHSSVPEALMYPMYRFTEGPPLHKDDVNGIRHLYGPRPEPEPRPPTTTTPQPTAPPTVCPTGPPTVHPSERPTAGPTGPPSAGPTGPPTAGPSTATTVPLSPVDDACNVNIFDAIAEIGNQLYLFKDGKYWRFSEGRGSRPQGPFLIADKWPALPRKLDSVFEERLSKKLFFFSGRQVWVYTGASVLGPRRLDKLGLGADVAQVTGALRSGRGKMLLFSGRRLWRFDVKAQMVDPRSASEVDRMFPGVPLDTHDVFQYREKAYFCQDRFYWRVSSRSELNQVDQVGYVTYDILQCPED

[6] = biological target: T4, MMP-9; assay: Initial screen of sFabs/IgG1s for inhibition of MMP-9 at 1 μM; format: biochemical
Procedure: After sequencing analysis, the phage display were converted into sFabs and then into IgG1s. Their ability to inhibit MMP-9 and other MMPs (1, 3, 7, 8, 9, 10, 12, 13, 14) was determined by usual means. Compounds were initially screened at 1 μM against MMP-9 and those compounds that inhibited MMP-9 >80% were subjected to additional screens against purified recombinant human MMP-2 (APMA activated enzyme) and other MMPs. For these additional screens, an IC50 value was determined. Ki values and specificities of the inhibitors were determined as described below.
Target sequence in this assay (P14780 94-707): as above

[7] = biological target: T5, Human MMP-9 catalytic domain (Homo sapiens, UniProt P14780); assay: Biacore 3000 binding to antibody-coated CM5 chip; conditions: 25° C.
T5 construct: Human MMP-9 catalytic domain (BIOMOL, SE-244); purchased BIOMOL SE-244
Procedure: (§4) Experiments were performed at 25° C. with the help of a Biacore 3000 instrument. The MMP-9 binding protein (M0166F10) and the M0237-D02 antibody were coated to a CM5 chip either via standard amine coupling or using an anti-Fc antibody surface. Then either the active, human MMP-9 catalytic domain (BIOMOL, SE-244), the human pro-MMP-9 (R&D, 911-MP), the human TIMP-1 (R&D, 970-TM) or a h-MMP-9/h-TIMP-1 complex were flowed over the antibody surfaces, and binding was recorded.

[8] = biological target: T6, human TIMP-1 (Homo sapiens, UniProt P01033); assay: Biacore 3000 binding to antibody-coated CM5 chip; conditions: Direct capture; 25° C.
T6 construct: purchased R&D Systems 970-TM
Procedure: as §4

[9] = biological target: T7, human pro-MMP-9 (Homo sapiens, UniProt P14780); assay: Biacore 3000 binding to antibody-coated CM5 chip; conditions: Direct capture, 25° C.
T7 construct: the human pro-MMP-9 (R&D, 911-MP); purchased R&D Systems 911-MP
Procedure: as §4

[10] = biological target: h-MMP-9/h-TIMP-1 complex (Homo sapiens, UniProt P14780); assay: Biacore 3000 binding to antibody-coated CM5 chip; conditions: Direct capture, 25° C.
Procedure: The non competitive inhibition model implies that the ternary complex enzyme-substrate-inhibitor can form. It is however possible that this complex cannot form with bigger substrates, in which case the antibody would behave as a competitive inhibitor. In order to address this issue, the ability of M0237-D02 antibody to bind to the h-MMP-9 when the enzyme is complexed to its natural inhibitor h-TIMP-1 was determined. The reasoning is that if the antibody cannot bind to the h-MMP-9/h-TIMP-1 complex, it would probably behave as a competitive inhibitor of this enzyme in the presence of bigger substrates.
as §4

T5 sequence (P14780 107-444 limits assumed): as the sequence (P14780 107-444 limits assumed) above
T7 sequence (P14780 20-707 limits assumed): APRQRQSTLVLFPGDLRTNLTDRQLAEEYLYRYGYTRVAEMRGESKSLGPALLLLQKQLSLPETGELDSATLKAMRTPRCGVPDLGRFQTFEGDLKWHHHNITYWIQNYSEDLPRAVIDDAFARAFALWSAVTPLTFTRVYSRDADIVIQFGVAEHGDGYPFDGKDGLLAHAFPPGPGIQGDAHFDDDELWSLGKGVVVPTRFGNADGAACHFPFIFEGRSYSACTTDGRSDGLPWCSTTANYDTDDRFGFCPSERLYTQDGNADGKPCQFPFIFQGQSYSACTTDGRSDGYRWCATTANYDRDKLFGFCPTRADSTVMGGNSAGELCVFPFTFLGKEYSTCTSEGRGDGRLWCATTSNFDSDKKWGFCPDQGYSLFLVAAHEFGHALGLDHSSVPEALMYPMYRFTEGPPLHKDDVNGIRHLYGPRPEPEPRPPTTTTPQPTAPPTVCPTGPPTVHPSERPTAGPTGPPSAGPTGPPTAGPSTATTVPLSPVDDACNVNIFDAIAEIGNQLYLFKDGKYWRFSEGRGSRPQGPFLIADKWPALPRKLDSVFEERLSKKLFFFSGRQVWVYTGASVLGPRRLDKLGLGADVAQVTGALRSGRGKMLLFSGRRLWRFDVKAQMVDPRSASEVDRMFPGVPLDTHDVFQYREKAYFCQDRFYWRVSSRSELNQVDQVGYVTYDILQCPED
T2 sequence (P08253 110-446 limits assumed): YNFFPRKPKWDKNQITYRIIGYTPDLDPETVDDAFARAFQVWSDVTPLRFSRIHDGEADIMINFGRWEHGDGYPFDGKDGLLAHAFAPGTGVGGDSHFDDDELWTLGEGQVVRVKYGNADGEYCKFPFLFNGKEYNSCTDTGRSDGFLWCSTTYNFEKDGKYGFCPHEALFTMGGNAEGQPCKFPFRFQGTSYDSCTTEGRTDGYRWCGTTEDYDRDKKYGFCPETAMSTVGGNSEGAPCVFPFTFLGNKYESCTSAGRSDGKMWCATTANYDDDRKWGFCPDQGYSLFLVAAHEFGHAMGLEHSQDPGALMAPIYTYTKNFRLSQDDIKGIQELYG
T1 sequence (P41245 108-730): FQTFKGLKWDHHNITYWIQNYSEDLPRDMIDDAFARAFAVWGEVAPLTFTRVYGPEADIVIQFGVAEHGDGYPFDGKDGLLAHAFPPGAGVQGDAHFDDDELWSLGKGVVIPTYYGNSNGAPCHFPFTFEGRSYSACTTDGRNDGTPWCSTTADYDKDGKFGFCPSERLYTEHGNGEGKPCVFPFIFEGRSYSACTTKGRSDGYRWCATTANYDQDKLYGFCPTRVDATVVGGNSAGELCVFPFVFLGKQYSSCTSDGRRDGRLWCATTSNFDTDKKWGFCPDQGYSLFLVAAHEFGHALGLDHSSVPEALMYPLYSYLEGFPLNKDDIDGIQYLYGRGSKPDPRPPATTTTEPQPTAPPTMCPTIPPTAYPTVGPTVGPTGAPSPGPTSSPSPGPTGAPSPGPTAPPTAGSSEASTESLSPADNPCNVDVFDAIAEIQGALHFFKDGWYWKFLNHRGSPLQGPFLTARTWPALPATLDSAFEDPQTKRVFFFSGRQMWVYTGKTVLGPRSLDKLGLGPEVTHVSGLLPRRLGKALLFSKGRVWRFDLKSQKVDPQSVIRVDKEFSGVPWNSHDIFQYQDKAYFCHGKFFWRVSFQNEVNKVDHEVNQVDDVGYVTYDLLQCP
T3 sequence (P33434 110-662): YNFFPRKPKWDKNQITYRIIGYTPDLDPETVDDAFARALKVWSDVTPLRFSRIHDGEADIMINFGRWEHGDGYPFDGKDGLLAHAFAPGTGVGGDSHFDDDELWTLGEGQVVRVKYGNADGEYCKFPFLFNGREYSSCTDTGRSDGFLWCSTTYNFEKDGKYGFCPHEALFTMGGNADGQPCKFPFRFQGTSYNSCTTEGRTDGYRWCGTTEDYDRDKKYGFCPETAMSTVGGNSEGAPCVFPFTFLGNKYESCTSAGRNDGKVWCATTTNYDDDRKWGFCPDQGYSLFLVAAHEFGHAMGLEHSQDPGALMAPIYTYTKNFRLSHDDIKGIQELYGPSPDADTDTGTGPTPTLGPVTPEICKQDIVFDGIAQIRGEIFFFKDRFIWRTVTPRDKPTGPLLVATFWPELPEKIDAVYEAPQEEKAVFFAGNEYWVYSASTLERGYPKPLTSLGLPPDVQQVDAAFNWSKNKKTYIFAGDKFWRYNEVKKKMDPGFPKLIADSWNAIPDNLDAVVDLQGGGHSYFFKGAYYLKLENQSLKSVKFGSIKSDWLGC
Chain of h-MMP-9/h-TIMP-1 complex (P14780 107-444 limits assumed): as the sequence (P14780 107-444 limits assumed) above
Chain of h-MMP-9/h-TIMP-1 complex (P01033 24-207 partner): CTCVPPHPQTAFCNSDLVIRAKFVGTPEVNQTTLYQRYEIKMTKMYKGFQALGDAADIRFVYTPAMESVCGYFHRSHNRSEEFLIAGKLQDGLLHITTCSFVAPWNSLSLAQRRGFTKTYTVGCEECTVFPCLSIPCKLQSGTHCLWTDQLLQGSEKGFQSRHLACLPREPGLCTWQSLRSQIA
T6 sequence (P01033 24-207): as the sequence (P01033 24-207 partner) above

B1: M0279-A03: MMP-9 specific antibody from light chain shuffling of M237-D02, sFab (antibody, V domains shown)
VH: EVQLLESGGGLVQPGGSLRLSCAASGFTFSQYPMWWVRQAPGKGLEWVSYIVPSGGRTYYADSVKGRFTISRDNSKNTLYLQMNSLRAEDTAVYYCAKDRAYGDYVGWNGFDYWGQGTLVTVSS
VL: QDIQMTQSPATLSVSPGERVTLSCKASHSISRNLAWYQQKPGQAPRLLIFGASTRATGIPARFSGSGSGTEFTLTISSLEAEDFAVYYCQQRRNWPVTFGPGTKLDFK
inhibition of mouse MMP-9 (in words) [1]: bind and inhibit
inhibition of human MMP-2 (in words) [2]: do not inhibit
inhibition of mouse MMP-2 (in words) [3]: do not inhibit
inhibition of human MMP-9 (in words) [4]: bind and inhibit

B2: M0288-C08: MMP-9 specific antibody from light chain shuffling of M237-D02, sFab (antibody, V domains shown)
VH: EVQLLESGGGLVQPGGSLRLSCAASGFTFSQYPMWWVRQAPGKGLEWVSYIVPSGGRTYYADSVKGRFTISRDNSKNTLYLQMNSLRAEDTAVYYCAKDRAYGDYVGWNGFDYWGQGTLVTVSS
VL: QDIQMTQSPGTLSVSPGERVTLSCRASQSVSSYLAWYQQKPGQAPRLLIYGASTRVTGIPARFSGSGSGTEFTLTISSLQSEDFAVYYCQQRSSWPITFGQGTRLEIK
inhibition of mouse MMP-9 (in words) [1]: bind and inhibit
inhibition of human MMP-2 (in words) [2]: do not inhibit
inhibition of mouse MMP-2 (in words) [3]: do not inhibit
inhibition of human MMP-9 (in words) [4]: bind and inhibit

B3: M0078-G07: Fab that binds MMP-9 but does not inhibit (antibody, V domains shown)
VH: EVQLLESGGGLVQPGGSLRLSCAASGFTFSSYTMEWVRQAPGKGLEWVSWISPSGGYTFYADSVKGRFTISRDNSKNTLYLQMNSLRAEDTALYYCARGYSYGSIDLWGRGTLVTVSS
VL: QDIQMTQSPGTLSVSPGERATLSCRASQSVSSDLAWYQHKPGQAPRLLIYGVSTKATGVPARFSGSGSGTEFTLTISSLQSEDLAVYYCQQYHNWPPLTFGGGTKVEIK
competition with TIMP-1 [5]: does not compete with TIMP-1
dissociation t1/2 [5]: 25 min
inhibition of the catalytic activity of MMP-9 [6]: Neither antibody inhibits

B4: M0076-D03: Fab that binds MMP-9 but does not inhibit (antibody, V domains shown)
VH: EVQLLESGGGLVQPGGSLRLSCAASGFTFSLYRMNWVRQAPGKGLEWVSYIGSSGGATAYADSVKGRFTISRDNSKNTLYLQMNSLRAEDTAVYYCARGAWYLDSWGQGTLVTVSS
VL: QDIQMTQSPSSLSASVGDRVTITCRASQGIRNDLDWYQQKPGTAPKRLIYSASNLQSGVPSRFSGSGSGTEFTLTISNLQPEDLATYFCLQHNSFPLTFGQGTKVEIK
competition with TIMP-1 [5]: does not compete with TIMP-1
dissociation t1/2 [5]: 33 min
inhibition of the catalytic activity of MMP-9 [6]: Neither antibody inhibits

B5: M0166-F10: inhibitory MMP-9 binding antibody (hMMP-9 antibody inhibitor) (antibody, V domains shown)
VH: EVQLLESGGGLVQPGGSLRLSCAASGFTFSPYLMNWVRQAPGKGLEWVSSIYSSGGGTGYADSVKGRFTISRDNSKNTLYLQMNSLRAEDTAVYYCARIYHSSSGPFYGMDVWGQGTTVTVSS
VL: QSELTQPPSASAAPGQRVTISCSGSSSNIGSNTVTWYQKLPGTAPKLLIYNNYERPSGVPARFSGSKSGTSASLAISGLQSEDEADYYCATWDDSLIANYVFGSGTKVTVLGQPKANP
binding of Cat-huMMP-9 ([7]; Direct capture (amine coupling)): binds
binding of Cat-huMMP-9 ([7]; Direct capture (amine coupling), listed as 539A-M0166F10): Yes
binding of Cat-huMMP-9 ([7]; Fc capture (anti-Fc antibody surface)): binds
binding of Cat-huMMP-9 ([7]; Fc capture (anti-Fc antibody surface), listed as 539A-M0166F10): Yes
binding of huTIMP-1 [8]: No
binding of Pro-huMMP-9 [9]: observed neither
binding of Pro-huMMP-9 ([9]; listed as 539A-M0166F10): ~No
binding of huTIMP-1/cat-huMMP-9 [10]: no binding was observed
binding of huTIMP-1/cat-huMMP-9 ([10]; listed as 539A-M0166F10): No
